Experimental data taken from paper PMC11696079 (Nature Communications, 2025).
Several values for one entry are separate records, joined by “and”; a condition that tells them apart may be missing. Equal values may be shown once.

Target: recombinant wild-type PKM2 (WT) (UniProt P14618 1-531)
Assay: SPR

Chain of recombinant wild-type PKM2 (WT) (P14618 whole entry): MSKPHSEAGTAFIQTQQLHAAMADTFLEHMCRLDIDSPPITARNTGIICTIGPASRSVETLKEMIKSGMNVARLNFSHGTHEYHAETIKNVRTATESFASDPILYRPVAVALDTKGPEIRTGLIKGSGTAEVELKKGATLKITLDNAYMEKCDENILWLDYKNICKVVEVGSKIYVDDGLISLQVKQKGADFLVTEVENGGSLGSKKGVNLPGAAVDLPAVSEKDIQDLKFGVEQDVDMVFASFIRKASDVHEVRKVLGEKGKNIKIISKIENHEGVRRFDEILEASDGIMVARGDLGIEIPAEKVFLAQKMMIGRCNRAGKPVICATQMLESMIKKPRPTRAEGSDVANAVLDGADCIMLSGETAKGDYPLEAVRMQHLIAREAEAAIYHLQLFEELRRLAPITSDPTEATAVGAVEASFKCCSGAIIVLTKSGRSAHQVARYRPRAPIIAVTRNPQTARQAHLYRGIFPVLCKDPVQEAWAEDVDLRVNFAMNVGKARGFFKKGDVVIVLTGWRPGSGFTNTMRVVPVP

- Kd: 382 nM and 322 nM
B1: recombinant wild-type ALDOA (WT) (enzyme)
chain: PYQYPALTPEQKKELSDIAHRIVAPGKGILAADESTGSIAKRLQSIGTENTEENRRFYRQLLLTADDRVNPCIGGVILFHETLYQKADDGRPFPQVIKSKGGVVGIKVDKGVVPLAGTNGETTTQGLDGLSERCAQYKKDGADFAKWRCVLKIGEHTPSALAIMENANVLARYASICQQNGIVPIVEPEILPDGDHDLKRCQYVTEKVLAAVYKALSDHHIYLEGTLLKPNMVTPGHACTQKFSHEEIAMATVTALRRTVPPAVTGITFLSGGQSEEEASINLNAINKCPLLKPWALTFSYGRALQASALKAWGGKKENLKAAQEEYVKRALANSLACQGKYTPSGQAGAAASESLFVSNHAY
